# B1: HA-tagged Activin/Nodal type I receptor ALK4 [not stated] / Myc-tagged mouse Fscn1 [mouse] (parent)
# chain 1: not shown
# chain 2: SGPRGVQALLCACTSCLQANYTCETDGACMVSIFNLDGMEHHVRTCIPKVELVPAGKPFYCLSSEDLRNTHCCYTDYCNRIDLRVPSGHLKEPEHPSMWGPVELVGIIAGPVFLLFLIIIIVFLVINYHQRVYHNRQRLDMEDPSCEMCLSKDKTLQDLVYDLSTSGSGSGLPLFVQRTVARTIVLQEIIGKGRFGEVWRGRWRGGDVAVKIFSSREERSWFREAEIYQTVMLRHENILGFIAADNKDNGTWTQLWLVSDYHEHGSLFDYLNRYTVTIEGMIKLALSAASGLAHLHMEIVGTQGKPGIAHRDLKSKNILVKKNGMCAIADLGLAVRHDAVTDTIDIAPNQRVGTKRYMAPEVLDETINMKHFDSFKCADIYALGLVYWEIARRCNSGGVHEEYQLPYYDLVPSDPSIEEMRKVVCDQKLRPNIPNWWQSYEALRVMGKMMRECWYANGAARLTALRIKKTLSQLSVQEDVKI
# B2: HA-tagged TGF-β type I receptor ALK5 [not stated] / Myc-tagged mouse Fscn1 [mouse] (parent)
# chain 1: not shown
# chain 2: LQCFCHLCTKDNFTCVTDGLCFVSVTETTDKVIHNSMCIAEIDLIPRDRPFVCAPSSKTGSVTTTYCCNQDHCNKIELPTTVKSSPGLGPVELAAVIAGPVCFVCISLMLMVYICHNRTVIHHRVPNEEDPSLDRPFISEGTTLKDLIYDMTTSGSGSGLPLLVQRTIARTIVLQESIGKGRFGEVWRGKWRGEEVAVKIFSSREERSWFREAEIYQTVMLRHENILGFIAADNKDNGTWTQLWLVSDYHEHGSLFDYLNRYTVTVEGMIKLALSTASGLAHLHMEIVGTQGKPAIAHRDLKSKNILVKKNGTCCIADLGLAVRHDSATDTIDIAPNHRVGTKRYMAPEVLDDSINMKHFESFKRADIYAMGLVFWEIARRCSIGGIHEDYQLPYYDLVPSDPSVEEMRKVVCEQKLRPNIPNRWQSCEALRVMAKIMRECWYANGAARLTALRIKKTLSQLSQQEGIKM
# Variants of: B1
# Experiment: co-immunoprecipitation (IP anti-Myc, IB anti-HA) with band quantification
# Details: HEK293 cells, 60 mm dishes, CA-ALK4-HA 2 μg, Myc-mFscn1 1.5 μg, no TGF-β1 or Activin A in the CA lane
row,ratio to parent,Variant
1,2.34,chain 2 T183D

# Variants of: B2
# Experiment: as above
# Details: HEK293 cells, 60 mm dishes, CA-ALK5-HA 2 μg, Myc-mFscn1 1.5 μg, no TGF-β1 or Activin A in the CA lane
row,ratio to parent,Variant
1,1.87,chain 2 T171D

# Same assay, conditions: transfected cells in 60 mm dishes, ALK5 KR-HA 2 μg, Myc-mFscn1 1.5 μg
row,ratio to parent,Variant
1,0.56,chain 2 K199R

# Source: paper PMC4996939
